Measurements published in US20240123058A1.

Legend:
[1] = molecular target: EBV gB protein ectodomain (24-683 aa) of the substituted M81 strain gB protein, C-terminal 6×His tag (EBV M81 strain) (UniProt P0C762); test: competition ELISA on coated gB: unlabelled primary antibody at 10 µg/mL, then HRP-labelled 3A3 as secondary
[2] = molecular target: EBV gB protein ectodomain (24-683 aa) of the substituted M81 strain gB protein, C-terminal 6×His tag (EBV M81 strain) (UniProt P0C762); test: competition ELISA on coated gB: unlabelled primary antibody at 10 µg/mL, then HRP-labelled 3A5 as secondary
[3] = molecular target: EBV gB protein ectodomain (24-683 aa) of the substituted M81 strain gB protein, C-terminal 6×His tag (EBV M81 strain) (UniProt P0C762); test: competition ELISA on coated gB: unlabelled primary antibody at 10 µg/mL, then HRP-labelled AMMO5 as secondary

mouse monoclonal antibody 72A1
competition rate [1]: -1.4%
competition rate [2]: 8%
competition rate [3]: -9.3%
